Assay results as given in paper doi:10.64898/2025.12.17.694860, “Structural basis for the inhibition of Trypanosoma brucei enolase by a camelid single-domain antibody” (bioRxiv, 2025).

Columns and labels:
[1] = molecular target: T1, Trypanosoma brucei enolase (Trypanosoma brucei (sequence identical …)); test: ITC; settings: both partners purified
T1 construct: Enolase (phosphopyruvate hydratase) of Trypanosoma brucei; printed MM = 48.4 kDa; Homodimer by analytical SEC and in the crystal; also called TbrENO; T. brucei enolase; source: E. coli, purified (IMAC, SEC); not shown: His tag, N-terminal, kept

[2] = molecular target: T1, Trypanosoma brucei enolase; test: SEC; settings: both partners purified

B1: sdAbR1-10 (VHH)
VHH: QVQLQESGGGLVQPGGSLRLSCAAPGSIFSIFSGNIMGWYRQAPGKQRDFVASISSGGATNYADSVKGRFTISRDNAKNTVYLQMNNLKPEDTAVYYCNTVGGVHTNSWGQGTQVTVSS
B1 was tested, and the Kd [1] was roughly 0.02 µM, the “stoichiometry N” value [1] was ~1 sdAbR1-10 per TbrENO monomer and the “stoichiometry N” value [2] was 2 sdAbR1-10 per TbrENO dimer.
